Legend:
[1] = target: T1, KHS1 activation loop peptide # 4, KRKSFIGTPYWMAPE, aa 171-185 (not fully specified)
T1 chain: KRKSFIGTPYWMAPE

[2] = target: T2, PAK5 activation loop peptide # 1, (C)RRKSLVGTPYWMAPE, aa 471-485
T2 chain: CRRKSLVGTPYWMAPE

[3] = target: T3, PAK5 activation loop peptide # 2, (C)RRKSLVGTPYWMAPE, aa 471-485
T3 chain: CRRKSLVGTPYWMAPE

[4] = target: T4, PAK5 activation loop peptide # 3, (C)RRKSLVGTPYWMAPE, aa 471-485 (not fully specified)
T4 chain: CRRKSLVGTPYWMAPE

[5] = target: T5, STLK2 activation loop peptide # 5, KRNTFVGTPFWMAPE, aa 175-189 (not fully specified)
T5 chain: KRNTFVGTPFWMAPE

[6] = target: T6, STLK4 activation loop peptide # 9, RNKVRKTFVGTPCWMAPE, aa 66-83 (not fully specified)
T6 chain: RNKVRKTFVGTPCWMAPE

[7] = target: T7, SULU1 activation loop peptide # 6, PANSFVGTPYWMAPE, aa 174-188 (not fully specified)
T7 chain: PANSFVGTPYWMAPE

[8] = target: T8, ZC1 activation loop peptide # 7, RRNTFIGTPYWMAPE, aa 184-198 (SEQ ID 125) (not fully specified)
T8 chain: RRNTFIGTPYWMAPE

[9] = target: T9, ZC1 activation loop peptide # 8, RRNTFIGTPYWMAPE, aa 184-198 (SEQ ID 126)
T9 chain: RRNTFIGTPYWMAPE

B1: human PAK5 (protein)
chain: MFGKRKKRVEISAPSNFEHRVHTGFDQHEQKFTGLPRQWQSLIEESARRPKPLVDPACITSIQPGAPKTIVRGSKGAKDGALTLLLDEFENMSVTRSNSLRRDSPPPPARARQENGMPEEPATTARGGPGKAGSRGRFAGHSEAGGGSGDRRRAGPEKRPKSSREGSGGPQESSRDKRPLSGPDVGTPQPAGLASGAKLAAGRPFNTYPRADTDHPSRGAQGEPHDVAPNGPSAGGLAIPQSSSSSSRPPTRARGAPSPGVLGPHASEPQLAPPACTPAAPAVPGPPGPRSPQREPQRVSHEQFRAALQLVVDPGDPRSYLDNFIKIGEGSTGIVCIATVRSSGKLVAVKKMDLRKQQRRELLFNEVVIMRDYQHENVVEMYNSYLVGDELWVVMEFLEGGALTDIVTHTRMNEEQIAAVCLAVLQALSVLHAQGVIHRDIKSDSILLTHDGRVKLSDFGFCAQVSKEVPRRKSLVGTPYWMAPELISRLPYGPEVDIWSLGIMVIEMVDGEPPYFNEPPLKAMKMIRDNLPPRLKNLHKVSPSLKGFLDRLLVRDPAQRATAAELLKHPFLAKAGPPASIVPLMRQNRTR
- substrate (in vitro kinase assay) [1]: yes
- substrate (in vitro kinase assay) [2]: yes
- substrate (in vitro kinase assay), note [2]: Equally well as MBB
- Km [3]: High Km for PAK5 (1-10 µM)
- substrate (in vitro kinase assay) [3]: yes
- substrate (in vitro kinase assay) [4]: no
- substrate (in vitro kinase assay) [5]: poor
- substrate (in vitro kinase assay) [6]: poor
- substrate (in vitro kinase assay) [7]: poor
- substrate (in vitro kinase assay) [8]: poor
- substrate (in vitro kinase assay) [9]: poor
- substrate (in vitro kinase assay), note [9]: Better than 7
